Measured values from patent US20240307442.

B1: Active Neutrophil Elastase (protein)
chain: IVGGRRARPHAWPFMVSLQLRGGHFCGATLIAPNFVMSAAHCVANVNVRAVRVVLGAHNLSRREPTRQVFAVQRIFENGYDPVNLLNDIVILQLNGSATINANVQVAQLPAQGRRLGNGVQCLAMGWGLLGRNRGIASVLQELNVTVVTSLCRRSNVCTLVRGRQAGVCFGDSGSPLVCNGLIHGIASFVRGGCASGLYPDAFAPVAQFVNWIDSIIQ
B1 was tested, and the “Western Blot of ECM molecules degraded by culture media” value (“Western Blot of ECM molecules degraded” for short) (fibronectin) was “NE released by GCC CAR CK+NE cells can degrade ECM molecules when GCC CAR CK+NE Cells are co-cultured with the substrate cells”, the “Western Blot of ECM molecules degraded” value (collagen IV) was “NE released by GCC CAR CK+NE cells can degrade ECM molecules when GCC CAR CK+NE Cells are co-cultured with the substrate cells” and the “Western Blot of ECM molecules degraded” value (collagen I) was “NE released by GCC CAR CK+NE cells can degrade ECM molecules when GCC CAR CK+NE Cells are co-cultured with the substrate cells”.
